Assay results published in patent US20260085127A1 (BRIGHTPATH BIOTHERAPEUTICS, published 2026).
Where “and” joins values, the source holds several entries; their conditions need not be identical. Identical values can stand only once. Like-named read-outs stand apart in the source and are kept apart here.

T1: human CD39 (Accession No. NM_001776.6) expressed on cells (human, UniProt P49961 1-510)
T1 construct: whole, on cells; On Jurkat, 293T or SK-MEL28 cells; also called Jurkat/CD39; 293T/CD39
T1 sequence (looked up): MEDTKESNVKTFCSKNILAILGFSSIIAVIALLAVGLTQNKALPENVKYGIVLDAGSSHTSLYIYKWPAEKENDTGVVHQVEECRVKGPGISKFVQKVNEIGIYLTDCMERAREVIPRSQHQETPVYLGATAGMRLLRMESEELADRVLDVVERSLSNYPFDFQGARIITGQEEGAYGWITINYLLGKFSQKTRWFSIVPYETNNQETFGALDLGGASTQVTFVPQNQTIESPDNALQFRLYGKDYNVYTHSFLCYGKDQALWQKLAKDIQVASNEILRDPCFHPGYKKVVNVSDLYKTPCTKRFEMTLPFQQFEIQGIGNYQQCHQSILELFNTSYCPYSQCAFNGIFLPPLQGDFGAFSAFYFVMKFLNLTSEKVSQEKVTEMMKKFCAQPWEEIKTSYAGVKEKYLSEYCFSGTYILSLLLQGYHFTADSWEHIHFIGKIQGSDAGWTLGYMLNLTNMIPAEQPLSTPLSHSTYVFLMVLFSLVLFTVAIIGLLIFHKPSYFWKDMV

T2: recombinant human CD39 (in-house product, 38 to 478 aa of Accession No. NM_001776.6) (human, UniProt P49961 38-478)
T2 construct: also called rhCD39; human CD39-ECD; not shown: Myc and His tags at the C-terminus are named only for the PE-lab
T2 sequence (looked up): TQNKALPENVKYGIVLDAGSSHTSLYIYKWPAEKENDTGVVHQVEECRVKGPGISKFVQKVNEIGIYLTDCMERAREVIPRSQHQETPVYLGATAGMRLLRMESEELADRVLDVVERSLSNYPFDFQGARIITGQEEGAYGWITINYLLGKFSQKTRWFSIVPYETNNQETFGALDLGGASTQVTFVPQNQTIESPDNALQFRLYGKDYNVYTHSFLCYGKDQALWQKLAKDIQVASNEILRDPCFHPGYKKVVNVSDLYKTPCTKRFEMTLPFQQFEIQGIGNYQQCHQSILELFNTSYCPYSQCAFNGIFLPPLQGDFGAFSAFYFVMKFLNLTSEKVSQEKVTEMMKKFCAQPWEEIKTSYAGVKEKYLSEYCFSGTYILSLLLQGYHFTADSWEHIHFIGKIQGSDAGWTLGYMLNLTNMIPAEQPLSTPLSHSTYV

B1: Hu003_13_F20_LA (antibody, V domains shown)
VH: QVQLQESGGGLVKPGGSLKLSCAASGFTFSSYYMSWVRQTPDKRLEWVATISNSGGSTYYPDSVKDRFTISRDNAKNTLYLQMSSLKSEDTAMYYCARDPYYTNYVPMDYWGQGTMVTVSS
VL: DIVMTQSPSFLSASVGDRVTITCKASQYVDTYVAWYQQRPGKAPKPLIYSASTRHTGVPSRFSGSGSGTEFTLTISSLQPEDFATYFCAQYSSSPLTFGGGTKLELK
notes: IgG1LALA homodimeric antibody (IgG1 with L234A and L235A); also called Hu003_LA; Hu003-LA
B2: Hu072_11_sc (antibody)
scFv: QVQLQESGGGLVKPGGSLKLSCAASGFTFSSYYMSWVRQTPDKRLEWVATISNSGGSTYYPDSVKDRFTISRDNAKNTLYLQMSSLKSEDTAMYYCARDPYYTNYVPMDYWGQGTMVTVSSGGGGSGGGGSGGGGSGGGGSDIVMTQSPDSLAVSLGERVTLSCKASENVGTYVSWYQQKPRQPPKLLIYGASNRYTGVPDRFSGSGSGTDFTLTISSLQAEDVALYYCGQSYSYPLTFGQGTRLEIK
notes: scFv-Fc homodimer, anti-TIM-3; also called scFv-Fc homodimeric antibody of anti-TIM-3_ScFv antibody Hu072_11; not shown: GGGG linker and Fc-LALA (IgG1 Fc with L234A and L235A)
B3: 6-3hIG_LA (antibody, V domains shown)
VH: QVQLVQSGAELVKPGASVKLSCKASGFSIKDTYVHWVKQAPGKGLEWIGKIDPANVNTKFDPKFQGRVTITADTSTNTAYLQLSSLRSEDTAVYYCALYGYDDDAYYFDYWGQGTLVTVSS
VL: EIVLTQSPASLSVSPGERATISCRASESVDNYGISFMNWFQQKPGQAPKLLIYAASNQGSGVPARFSGSGSGTDFTLTISSLEPEDFAVYYCQQSKEVPYTFGQGTKLEIK
notes: IgG1LALA homodimeric antibody; also called IgG1LALA homodimeric antibody of anti-CD39 antibody (humanized) 6-3hIG
B4: Hu003_13_F20_sc (antibody)
scFv: QVQLQESGGGLVKPGGSLKLSCAASGFTFSSYYMSWVRQTPDKRLEWVATISNSGGSTYYPDSVKDRFTISRDNAKNTLYLQMSSLKSEDTAMYYCARDPYYTNYVPMDYWGQGTMVTVSSGGGGSGGGGSGGGGSGGGGSDIVMTQSPSFLSASVGDRVTITCKASQYVDTYVAWYQQRPGKAPKPLIYSASTRHTGVPSRFSGSGSGTEFTLTISSLQPEDFATYFCAQYSSSPLTFGGGTKLELK
notes: scFv-Fc homodimer, anti-TIM-3; also called scFv-Fc homodimeric antibody of anti-TIM-3_scFv antibody (humanized) Hu003_13_F20; not shown: GGGG linker and Fc-LALA (IgG1 Fc with L234A and L235A)
B5: I67_Hu003_Fsc (bispecific antibody, not shown: a dimerising Fc or GST)
VH: DVQLQESGPSLVQPSQSLSINCTVSGFSLSSYGVHWVRQSPGKGLEWLGVIWRRGSTDYNAAFMSRLSITKDNSKSQVFFKMNRLQADDTATYYCAKGISTATSWFAYWGQGTLVTVSA
VL: DIVMTQSHKFMSTSVGDRVSVTCKASQNVGTNVAWYQQKPGQSPKALIYSASYRYSGVPDRFTGSGSGTDFTLTISNVQSEDLAEYFCQQYNSYPLTFGAGTKLELK
scFv: B4 scFv
notes: Fab-scFv-Fc heterodimer: anti-CD39 Fab I67 (Knob)
B6: HuP4_IB_Hu003 (bispecific antibody)
chain 1: QVQLLESGPELVKPSATLSITCTVSGFSLTNYGVHWIRQAPGKGLEWLGVILRRGSTDYNAAFMSRFTISKDNSKNQVYFKLRSVTAEDTAVVAGDYFDYWGQGTMVTVSSGGGGSGGGGSGGGGSGGGGSDIQMTQSHSTLSLSVGDRVTITCKASQNVGTNVAWYQQKPGQPPKALIYSASYRYSGVPSRFSGSGSGTDFTLTISSVQAEDVAVYYCQQYNSYPLTFGPGTKLEIK
chain 2: B4 scFv

Columns and labels:
[1] = target: T3, biotinylated human TIM-3-Fc antigen (in-house product, SEQ ID No: 118) (human, biotinylated); assay: flow cytometry, inhibition of biotinylated TIM-3-Fc binding to phosphatidylserine on apoptotic Jurkat cells
[2] = target: T1, human CD39 (Accession No. NM_001776.6) …; assay: flow cytometry on a mix of Jurkat, Jurkat/TIM-3, Jurkat/CD39 and Jurkat/TIM-3+CD39 cells in one well, antibody at 1 nM, BV421-anti-hIgG, MFI of BV421 per cell group
[3] = target: T4, human TIM-3 (Accession No. JX049979.1) stably expressed on cells (human, UniProt Q8TDQ0 22-301); assay: flow cytometry, Jurkat/TIM-3 + CD39 cells, KD from MFI
T4 construct: whole, on cells; On Jurkat or 293T cells; also called Jurkat/TIM-3; 293T/TIM-3

[4] = target: T4, human TIM-3 (Accession No. JX049979.1) …; assay: flow cytometry, Jurkat/TIM-3 cells, KD from MFI
[5] = target: T1, human CD39 (Accession No. NM_001776.6) …; assay: flow cytometry on a mix of Jurkat, Jurkat/TIM-3, Jurkat/CD39 and Jurkat/TIM-3+CD39 cells in one well, antibody at 0.1 nM, BV421-anti-hIgG, MFI of BV421 per cell group
[6] = target: T1, human CD39 (Accession No. NM_001776.6) …; assay: flow cytometry, 293T/CD39 cells, KD from MFI
[7] = target: T2, recombinant human CD39 (in-house …); assay: SPR Biacore8K, antibody captured on anti-human IgG, antigen as analyte
[8] = target: T1, human CD39 (Accession No. NM_001776.6) …; assay: flow cytometry, 293T/TIM-3 + CD39 cells, KD from MFI
[9] = target: T4, human TIM-3 (Accession No. JX049979.1) …; assay: flow cytometry on a mix of Jurkat, Jurkat/TIM-3, Jurkat/CD39 and Jurkat/TIM-3+CD39 cells in one well, antibody at 1 nM, BV421-anti-hIgG, MFI of BV421 per cell group
[10] = target: T3, biotinylated human TIM-3-Fc antigen …; assay: flow cytometry, inhibition of biotinylated TIM-3-Fc binding to phosphatidylserine on apoptotic Jurkat cells; remark: listed apart in the source
[11] = target: T3, biotinylated human TIM-3-Fc antigen …; assay: competition ELISA: human Galectin-9 coated, biotinylated human TIM-3-Fc pre-mixed with the antibody dilution series, Streptavidin-HRP, A450; blocked ligand: human Galectin-9
[12] = target: T3, biotinylated human TIM-3-Fc antigen …; assay: flow cytometry, inhibition of biotinylated TIM-3-Fc binding to phosphatidylserine on apoptotic Jurkat cells; remark: listed apart in the source
[13] = target: T4, human TIM-3 (Accession No. JX049979.1) …; assay: flow cytometry, 293T/TIM-3 + CD39 cells, KD from MFI
[14] = target: T3, biotinylated human TIM-3-Fc antigen …; assay: competition ELISA: human Galectin-9 coated, biotinylated human TIM-3-Fc pre-mixed with the antibody dilution series, Streptavidin-HRP, A450; blocked ligand: human Galectin-9; remark: listed apart in the source
[15] = target: T4, human TIM-3 (Accession No. JX049979.1) …; assay: flow cytometry, 293T/TIM-3 cells, KD from MFI
[16] = target: T3, biotinylated human TIM-3-Fc antigen …; assay: competition ELISA: human Galectin-9 coated, biotinylated human TIM-3-Fc pre-mixed with the antibody dilution series, Streptavidin-HRP, A450; blocked ligand: human Galectin-9; remark: listed apart in the source
[17] = target: T4, human TIM-3 (Accession No. JX049979.1) …; assay: flow cytometry, 293T/TIM-3 cells, KD from MFI; remark: listed apart in the source
[18] = target: T1, human CD39 (Accession No. NM_001776.6) …; assay: flow cytometry, 293T/CD39 cells, KD from MFI; remark: listed apart in the source

Row | IC50 [1] | Kd [3] | Kd [4] | binding result [5] | Kd [7] | IC50 [10] | IC50 (read off the curve) [11] | Kd [17] | other results | Binder
1 | 8.93 nM and 7.11 nM and 8.51 nM and 12.3 nM | – | – | – | – | – | – | – | binding result [2]: no binding (tested: 1 nM) | B1
2 | – | 31.2 nM | 26.8 nM | no binding (tested: 0.1 nM) | – | – | – | – | – | B2
3 | – | – | – | – | 0.629 nM | – | – | – | Kd [6]: 7.04 nM; koff [7]: 0.000193 s⁻¹; kon [7]: 307000 M⁻¹ s⁻¹; Kd [8]: 16.8 nM; binding result [9]: no binding (tested: 1 nM) | B3
4 | – | 0.339 nM | 0.274 nM | no binding (tested: 0.1 nM) | – | 8.56 nM and 8.62 nM | ~0.5 nM and ~0.3 nM | – | IC50 [12]: 16.7 nM and 6.66 nM and 8.42 nM; Kd [13]: 3.86 nM; IC50 (read off the curve) [14]: ~1 nM; Kd [15]: 2.72 nM; IC50 (read off the curve) [16]: ~0.5 nM and ~1 nM | B4
5 | 25.2 nM | – | – | – | – | – | – | 4.78 nM | – | B5
6 | – | – | – | – | 0.334 nM | 16.5 nM | ~3 nM | 8.66 nM | Kd [18]: 11.4 nM | B6
